Laboratory results taken from article PMC4822050, “Hemi-methylated DNA opens a closed conformation of UHRF1 to facilitate its histone recognition” (Nature Communications, 2016).

Key:
[1] = molecular target: FAM-16bp-HM-DNA; assay: Fluorescence polarization, 16-bp FAM-hm-DNA; format: binding; conditions: FP, DNA length series
Protocol: (§1) FP measurements were performed at 25 °C on Synergy 4 Microplate Reader (BioTek). The 16-bp and 20-bp FAM-labelled hm-DNA (lower strand: 5′-GTGTCAGXGCATGGCC-3′ and 5′-CCGTGTCAGXGCATGGCCAT-3′, respectively. X=5-methyldeoxycytosine) were used in the FP experiment to test the effect of DNA length on the protein/DNA interaction. All experiments were performed in triplicate. The curves were fitted by GraphPad Prism 5. For salt concentration-dependent FP experiments, the reaction buffer contains 50 mM or 150 mM NaCl, respectively.

[2] = molecular target: hm-DNA (12 bp); assay: ITC, hm-DNA titrated into UHRF1 domains; format: binding; conditions: 18 °C, 12-bp hm-DNA in syringe, named protein in cell, 10 mM HEPES pH 8.0, 100 mM NaCl
Protocol: (§2) For competition ITC experiments: the indicated proteins were pre-incubated with competitive peptide, protein or hm-DNA (at 1:2 molar ratio if not specified) for 10 min followed by ITC measurements as described above. Proteins, DNA and peptides were prepared within ITC buffer containing 10 mM HEPES, pH 8.0, 100 mM NaCl. The data were fitted by software Origin 7.0. All ITC results were summarized in Supplementary Table 2 and raw data were shown in Supplementary Fig. 9.

[3] = molecular target: FAM-20bp-HM-DNA; assay: Fluorescence polarization, 20-bp FAM-hm-DNA; format: binding; conditions: FP, DNA length series
Protocol: as §1

[4] = molecular target: T1, TTD (residues 134–285) of UHRF1 (Homo sapiens, UniProt Q96T88); assay: ITC, TTD titrated into Spacer variants and other UHRF1 fragments; format: binding; conditions: TTD in syringe
T1 construct: TTD (residues 134–285); GST (N, cleaved yes); made in house; host or cells: E. coli BL21 (DE3)
T1 sequence (Q96T88 134-285): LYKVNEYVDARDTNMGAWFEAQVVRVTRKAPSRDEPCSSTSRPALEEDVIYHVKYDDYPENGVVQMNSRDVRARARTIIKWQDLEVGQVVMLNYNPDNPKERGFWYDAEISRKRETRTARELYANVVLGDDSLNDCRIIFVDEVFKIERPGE
Protocol: as §2

[5] = molecular target: RFTS^DNMT1; assay: ITC, RFTS of DNMT1 with SRA or SRA-Spacer; format: binding; conditions: 18 °C, RFTS^DNMT1 with named protein, 10 mM HEPES pH 8.0, 100 mM NaCl
Protocol: as §2

[6] = molecular target: FAM-12bp-HM-DNA; assay: Fluorescence polarization, 12-bp FAM-hm-DNA; format: binding; conditions: for Kd: FP
Protocol: A 6-carboxy-fluorescein (FAM)-labelled primer, 5′-CCATGCGCTGAC-3′, was annealed to a primer 5′-GTCAGXGCATGG-3′ (X=5-methyldeoxycytosine). The hemi-methylated double-strand DNA was used in both electrophoretic mobility-shift assay and FP assays. […] The samples were subjected to a 10% polyacrylamide gel electrophoresis and run in 0.5 × Tris-borate-EDTA buffer at 100 V for 1 h at 4 °C. The results were visualized on Tanon-5200 Chemiluminescent Imaging System (Tanon Science & Technology Co., Ltd).
as §1

[7] = system: H3K9me3 peptide (1–17); assay: ITC, H3K9me3 peptide (1-17) titrated into UHRF1 proteins; format: binding; conditions: ITC KD ratio
Protocol: as §2

[8] = system: DAPI foci (pericentromeric heterochromatin) in NIH3T3 cells; assay: Subcellular localization of GFP-tagged UHRF1 in NIH3T3 cells; format: cell-based; conditions: GFP-tagged protein transiently overexpressed in NIH3T3 cells, 36 h after transfection; at least 100 cells counted; repeated three times
Protocol: NIH3T3 cells were obtained from the Shanghai Institute of Biochemistry and Cell Biology. Wild type and mutants of UHRF1 were sub-cloned into pEGFP-C1 vector. Transient transfections of NIH3T3 cells were carried out using Lipofectamine 2000 (Invitrogen). The NIH3T3 cells were grown on glass coverslips and harvested in 36 h after transfection. The images were acquired and examined as previously described. Briefly, cells were fixed with 4% paraformaldehyde for 25 min, then washed with PBS three times. Coverslips were mounted with Antifade reagent containing DAPI (Molecular Probes) on slides and examined with a confocal microscopy.

[9] = 25 °C, 20 min, 20 mM HEPES pH 7.5, 175 mM NaCl, 8% glycerol, 1 mM DTT, triplicate, Fig. 5b and Supplementary Table 4

B1: SRA–Spacer: human UHRF1 residues 414–674 (protein)
chain: PSNHYGPIPGIPVGTMWRFRVQVSESGVHRPHVAGIHGRSNDGAYSLVLAGGYEDDVDHGNFFTYTGSGGRDLSGNKRTAEQSCDQKLTNTNRALALNCFAPINDQEGAEAKDWRSGKPVRVVRNVKGGKNSKYAPAEGNRYDGIYKVVKYWPEKGKSGFLVWRYLLRRDDDEPGPWTKEGKDRIKKLGLTMQYPEGYLEALANREREKENSKREEEEQQEGGFASPRTGKGKWKRKSAGGGPSRAGSPRRTSKKTKVEPY
modifications: left off: GST, end not stated, cleaved
With B1 the Kd [1] was 390 ± 70 nM, the Kd [2] was 1750 nM and the Kd [3] was 400 ± 70 nM. The N ([4]; ITC stoichiometry) was 0.788±0.0108, the ΔH ([4]; ITC) was -1.199E4±224.9 cal/mol and the ΔS ([4]; ITC) was -13.3 cal/mol/deg. For the same molecule, the Kd [5] was 7090 nM, the Kd ([6]; 12-bp hm-DNA, 50 mM NaCl) was 24 ± 3.7 nM and the Kd ([6]; 12-bp hm-DNA, 150 mM NaCl) was 580 ± 98 nM. The Kd [6, 9] was 490 nM, the Kd ([6]; DNA length series, Supplementary Table 5, 12-bp hm-DNA) was 340 ± 90 nM and the Kd ([6]; values as printed in Fig. 5c (Spacer truncation mapping)) was 490 nM.

B2: UHRF1∆627-674: spacer deletion mutant of UHRF1 (residues 627–674 deleted) (protein)
chain: MWIQVRTMDGRQTHTVDSLSRLTKVEELRRKIQELFHVEPGLQRLFYRGKQMEDGHTLFDYEVRLNDTIQLLVRQSLVLPHSTKERDSELSDTDSGCCLGQSESDKSSTHGEAAAETDSRPADEDMWDETELGLYKVNEYVDARDTNMGAWFEAQVVRVTRKAPSRDEPCSSTSRPALEEDVIYHVKYDDYPENGVVQMNSRDVRARARTIIKWQDLEVGQVVMLNYNPDNPKERGFWYDAEISRKRETRTARELYANVVLGDDSLNDCRIIFVDEVFKIERPGEGSPMVDNPMRRKSGPSCKHCKDDVNRLCRVCACHLCGGRQDPDKQLMCDECDMAFHIYCLDPPLSSVPSEDEWYCPECRNDASEVVLAGERLRESKKKAKMASATSSSQRDWGKGMACVGRTKECTIVPSNHYGPIPGIPVGTMWRFRVQVSESGVHRPHVAGIHGRSNDGAYSLVLAGGYEDDVDHGNFFTYTGSGGRDLSGNKRTAEQSCDQKLTNTNRALALNCFAPINDQEGAEAKDWRSGKPVRVVRNVKGGKNSKYAPAEGNRYDGIYKVVKYWPEKGKSGFLVWRYLLRRDDDEPGPWTKEGKDRIKKLGLTMQYPEGYLEALANREREKENSKSLTAQQSSLIREDKSNAKLWNEVLASLKDRPASGSPFQLFLSKVEETFQCICCQELVFRPITTVCQHNVCKDCLDRSFRAQVFSCPACRYDLGRSYAMQVNQPLQTVLNQLFPGYGNGR
modifications: left off: GST, end not stated, cleaved
For B2, the “fold higher binding affinity to H3K9me3 peptide than full-length UHRF1” value [7] was “four”, the “percentage of cells showing co-localization with DAPI foci” value [8] was 22.1% and the “factor of decrease in hm-DNA-binding affinity compared with full-length UHRF1” value ([6]; FP KD ratio) was 14. The Kd [6, 9] was 4940 ± 1090 nM.
